Measured values as given in the supplement of paper PMC10567573.

B1: EFHC1 (parent)
chain: NIYYYLEDDSMSVIEPVVENSGIL

Variants of: B1
Assay: protein stability index of a GFP-peptide fusion (GPS, HEK-293T) (PSI 1-6); higher = more stable
Settings: c terminus: a fixed tail appended
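Further: lentivirally expressed fusions sorted by FACS into six bins by GFP to DsRed ratio, PSI derived from sequencing read proportions per bin multiplied by bin number.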

Variant	protein stability index
NIYYYLEDSSMSVIEPVVENSGIL [D9S]	1.68
NIYYYLEDASMSVIEPVVENSGIL [D9A]	2.09
NIYYYLEDFSMSVIEPVVENSGIL [D9F]	2.08
NIYYYLEDCSMSVIEPVVENSGIL [D9C]	1.76
NIYYYLEDRSMSVIEPVVENSGIL [D9R]	2.09
NIYYYLEDKSMSVIEPVVENSGIL [D9K]	1.83
NIYYYLEDESMSVIEPVVENSGIL [D9E]	2.11
NIYYYLEDGSMSVIEPVVENSGIL [D9G]	2.12
NIYYYLEDPSMSVIEPVVENSGIL [D9P]	2.02
NIYYYLEDWSMSVIEPVVENSGIL [D9W]	1.54
NIYYYLEDNSMSVIEPVVENSGIL [D9N]	1.69
NIYYYLEDLSMSVIEPVVENSGIL [D9L]	1.68
NIYYYLEDHSMSVIEPVVENSGIL [D9H]	2.13
NIYYYLEDISMSVIEPVVENSGIL [D9I]	1.56
NIYYYLEDTSMSVIEPVVENSGIL [D9T]	1.37
NIYYYLEDYSMSVIEPVVENSGIL [D9Y]	4.3
NIYYYLEDQSMSVIEPVVENSGIL [D9Q]	2.88
NIYYYLEDDSMSNIEPVVENSGIL [V13N]	2.82
NIYYYLEDDSMSIIEPVVENSGIL [V13I]	2.15
NIYYYLEDDSMSSIEPVVENSGIL [V13S]	2.17
NIYYYLEDDSMSGIEPVVENSGIL [V13G]	2.42
NIYYYLEDDSMSLIEPVVENSGIL [V13L]	2.52
NIYYYLEDDSMSPIEPVVENSGIL [V13P]	2.5
NIYYYLEDDSMSWIEPVVENSGIL [V13W]	2.11

Variant	protein stability index
NIYYYLEDDSMSEIEPVVENSGIL [V13E]	3.1
NIYYYLEDDSMSRIEPVVENSGIL [V13R]	1.81
NIYYYLEDDSMSAIEPVVENSGIL [V13A]	1.72
NIYYYLEDDSMSKIEPVVENSGIL [V13K]	2.08
NIYYYLEDDSMSTIEPVVENSGIL [V13T]	2.21
NIYYYLEDDSMSHIEPVVENSGIL [V13H]	2.24
NIYYYLEDDSMSYIEPVVENSGIL [V13Y]	1.31
NIYYYLEDDSMSMIEPVVENSGIL [V13M]	2.23
NIYYYLEDDSMSCIEPVVENSGIL [V13C]	1.85
NIYYYLEDDSMSQIEPVVENSGIL [V13Q]	2.35
NIYYYLEDDSMSFIEPVVENSGIL [V13F]	2.16
NIYYYLEDDSMSDIEPVVENSGIL [V13D]	2.86
NIYYYLEDDSMPVIEPVVENSGIL [S12P]	2.15
NIYYYLEDDSMDVIEPVVENSGIL [S12D]	3.05
NIYYYLEDDSMRVIEPVVENSGIL [S12R]	1.73
NIYYYLEDDSMMVIEPVVENSGIL [S12M]	1.8
NIYYYLEDDSMFVIEPVVENSGIL [S12F]	2.77
NIYYYLEDDSMTVIEPVVENSGIL [S12T]	1.58
NIYYYLEDDSMHVIEPVVENSGIL [S12H]	2.53
NIYYYLEDDSMGVIEPVVENSGIL [S12G]	2.37
NIYYYLEDDSMEVIEPVVENSGIL [S12E]	2.64
NIYYYLEDDSMVVIEPVVENSGIL [S12V]	1.86
NIYYYLEDDSMAVIEPVVENSGIL [S12A]	1.98
NIYYYLEDDSMQVIEPVVENSGIL [S12Q]	1.92

Variant	protein stability index
NIYYYLEDDSMNVIEPVVENSGIL [S12N]	2.08
NIYYYLEDDSMKVIEPVVENSGIL [S12K]	1.85
NIYYYLEDDSMCVIEPVVENSGIL [S12C]	1.61
NIYYYLEDDSMWVIEPVVENSGIL [S12W]	2.16
NIYYYLEDDSMYVIEPVVENSGIL [S12Y]	1.2
NIYYYLEDDSMSVIEPIVENSGIL [V17I]	1.62
NIYYYLEDDSMSVIEPHVENSGIL [V17H]	2.15
NIYYYLEDDSMSVIEPDVENSGIL [V17D]	2.6
NIYYYLEDDSMSVIEPEVENSGIL [V17E]	3.08
NIYYYLEDDSMSVIEPKVENSGIL [V17K]	2.31
NIYYYLEDDSMSVIEPCVENSGIL [V17C]	1.85
NIYYYLEDDSMSVIEPGVENSGIL [V17G]	1.95
NIYYYLEDDSMSVIEPLVENSGIL [V17L]	1.74
NIYYYLEDDSMSVIEPAVENSGIL [V17A]	2.1
NIYYYLEDDSMSVIEPFVENSGIL [V17F]	2.88
NIYYYLEDDSSSVIEPVVENSGIL [M11S]	2.46
NIYYYLEDDSTSVIEPVVENSGIL [M11T]	2.38
NIYYYLEDDSESVIEPVVENSGIL [M11E]	2.68
NIYYYLEDDSYSVIEPVVENSGIL [M11Y]	2.17
NIYYYLEDDSHSVIEPVVENSGIL [M11H]	2.56
NIYYYLEDDSLSVIEPVVENSGIL [M11L]	2.07
NIYYYLEDDSFSVIEPVVENSGIL [M11F]	1.7
NIYYYLEDDSKSVIEPVVENSGIL [M11K]	3.24
NIYYYLEDDSPSVIEPVVENSGIL [M11P]	3.39

Variant	protein stability index
NIYYYLEDDSCSVIEPVVENSGIL [M11C]	2.19
NIYYYLEDDSVSVIEPVVENSGIL [M11V]	2.2
NIYYYLEDDSASVIEPVVENSGIL [M11A]	2.75
NIYYYLEDDSNSVIEPVVENSGIL [M11N]	3.06
NIYYYLEDDSGSVIEPVVENSGIL [M11G]	2.05
NIYYYLEDDSRSVIEPVVENSGIL [M11R]	2.32
NIYYYLEDDSQSVIEPVVENSGIL [M11Q]	2.55
NIYYYLEDDSISVIEPVVENSGIL [M11I]	2.51
NIYYYLEDDSDSVIEPVVENSGIL [M11D]	3.39
NIYYYLEDDSWSVIEPVVENSGIL [M11W]	1.76
NIYYYLEDDGMSVIEPVVENSGIL [S10G]	2.08
NIYYYLEDDLMSVIEPVVENSGIL [S10L]	1.14
NIYYYLEDDDMSVIEPVVENSGIL [S10D]	2.36
NIYYYLEDDIMSVIEPVVENSGIL [S10I]	2.1
NIYYYLEDDAMSVIEPVVENSGIL [S10A]	2.02
NIYYYLEDDMMSVIEPVVENSGIL [S10M]	2.13
NIYYYLEDDQMSVIEPVVENSGIL [S10Q]	2.05
NIYYYLEDDFMSVIEPVVENSGIL [S10F]	2.3
NIYYYLEDDNMSVIEPVVENSGIL [S10N]	3.24
NIYYYLEDDKMSVIEPVVENSGIL [S10K]	2.18
NIYYYLEDDCMSVIEPVVENSGIL [S10C]	1.71
NIYYYLEDDPMSVIEPVVENSGIL [S10P]	2.03
NIYYYLEDDWMSVIEPVVENSGIL [S10W]	2.02
NIYYYLEDDTMSVIEPVVENSGIL [S10T]	1.93

Variant	protein stability index
NIYYYLEDDVMSVIEPVVENSGIL [S10V]	1.68
NIYYYLEDDYMSVIEPVVENSGIL [S10Y]	1.9
NIYYYLEDDEMSVIEPVVENSGIL [S10E]	2.57
NIYYYLEDDHMSVIEPVVENSGIL [S10H]	2.09
NIYYYLEDDRMSVIEPVVENSGIL [S10R]	3.15
NIYYYLSDDSMSVIEPVVENSGIL [E7S]	1.46
NIYYYLGDDSMSVIEPVVENSGIL [E7G]	1.65
NIYYYLHDDSMSVIEPVVENSGIL [E7H]	1.3
NIYYYLIDDSMSVIEPVVENSGIL [E7I]	2.12
NIYYYLTDDSMSVIEPVVENSGIL [E7T]	2.38
NIYYYLYDDSMSVIEPVVENSGIL [E7Y]	2.31
NIYYYLWDDSMSVIEPVVENSGIL [E7W]	1.41
NIYYYLNDDSMSVIEPVVENSGIL [E7N]	2.72
NIYYYLMDDSMSVIEPVVENSGIL [E7M]	2.09
NIYYYLFDDSMSVIEPVVENSGIL [E7F]	1.13
NIYYYLKDDSMSVIEPVVENSGIL [E7K]	1.91
NIYYYLQDDSMSVIEPVVENSGIL [E7Q]	1.94
NIYYYLLDDSMSVIEPVVENSGIL [E7L]	2.33
NIYYYLRDDSMSVIEPVVENSGIL [E7R]	2.52
NIYYYLPDDSMSVIEPVVENSGIL [E7P]	1.92
NIYYYLEDDSMSVIECVVENSGIL [P16C]	2.54
NIYYYLEDDSMSVIEIVVENSGIL [P16I]	2.75
NIYYYLEDDSMSVIEVVVENSGIL [P16V]	2.86
NIYYYLEDDSMSVIEWVVENSGIL [P16W]	2.61

Variant	protein stability index
NIYYYLEDDSMSVIEMVVENSGIL [P16M]	2.57
NIYYYLEDDSMSVIEFVVENSGIL [P16F]	2.73
NIYYYLEDDSMSVIEKVVENSGIL [P16K]	2.58
NIYYYLEDDSMSVIEGVVENSGIL [P16G]	1.92
NIYYYLEDDSMSVIESVVENSGIL [P16S]	1.83
NIYYYLEDDSMSVIENVVENSGIL [P16N]	1.65
NIYYYLEDDSMSVIETVVENSGIL [P16T]	2.94
NIYYYLEDDSMSVIEYVVENSGIL [P16Y]	1.42
NIYYYLEDDSMSVIEEVVENSGIL [P16E]	2.37
NIYYYLEDDSMSVIEQVVENSGIL [P16Q]	2.17
NIYYYLEDDSMSVIEHVVENSGIL [P16H]	2.45
NIYYYLEDDSMSVIEDVVENSGIL [P16D]	2.2
NIYYYLEDDSMSVIERVVENSGIL [P16R]	2.11
NIYYYLEDDSMSVIEAVVENSGIL [P16A]	2.38
NIYYYLEDDSMSVFEPVVENSGIL [I14F]	1.98
NIYYYLEDDSMSVREPVVENSGIL [I14R]	2.78
NIYYYLEDDSMSVMEPVVENSGIL [I14M]	2.09
NIYYYLEDDSMSVEEPVVENSGIL [I14E]	3.1
NIYYYLEDDSMSVPEPVVENSGIL [I14P]	3.08
NIYYYLEDDSMSVCEPVVENSGIL [I14C]	2.28
NIYYYLEDDSMSVWEPVVENSGIL [I14W]	1.86
NIYYYLEDDSMSVQEPVVENSGIL [I14Q]	1.85
NIYYYLEDDSMSVDEPVVENSGIL [I14D]	3.11
NIYYYLEDDSMSVYEPVVENSGIL [I14Y]	1.93

Variant	protein stability index
NIYYYLEDDSMSVNEPVVENSGIL [I14N]	2.62
NIYYYLEDDSMSVLEPVVENSGIL [I14L]	1.95
NIYYYLEDDSMSVVEPVVENSGIL [I14V]	2.31
NIYYYLEDDSMSVSEPVVENSGIL [I14S]	2.43
NIYYYLEDDSMSVAEPVVENSGIL [I14A]	2.42
NIYYYLEDDSMSVTEPVVENSGIL [I14T]	2.1
NIYYYLEDDSMSVKEPVVENSGIL [I14K]	3.07
NIYYYLEDDSMSVHEPVVENSGIL [I14H]	2.45
NIYYYLEDDSMSVGEPVVENSGIL [I14G]	2.51
NIYYYLEMDSMSVIEPVVENSGIL [D8M]	2.71
NIYYYLERDSMSVIEPVVENSGIL [D8R]	2.35
NIYYYLEGDSMSVIEPVVENSGIL [D8G]	2.47
NIYYYLEADSMSVIEPVVENSGIL [D8A]	1.94
NIYYYLEWDSMSVIEPVVENSGIL [D8W]	4.45
NIYYYLESDSMSVIEPVVENSGIL [D8S]	2.6
NIYYYLEYDSMSVIEPVVENSGIL [D8Y]	2.03
NIYYYLECDSMSVIEPVVENSGIL [D8C]	2.56
NIYYYLETDSMSVIEPVVENSGIL [D8T]	1.83
NIYYYLEKDSMSVIEPVVENSGIL [D8K]	1.6
NIYYYLEQDSMSVIEPVVENSGIL [D8Q]	1.91
NIYYYLEFDSMSVIEPVVENSGIL [D8F]	2.17
NIYYYLEHDSMSVIEPVVENSGIL [D8H]	1.89
NIYYYLEEDSMSVIEPVVENSGIL [D8E]	1.94
NIYYYLEPDSMSVIEPVVENSGIL [D8P]	2.23

Variant	protein stability index
NIYYYLEVDSMSVIEPVVENSGIL [D8V]	3.11
NIYYYLENDSMSVIEPVVENSGIL [D8N]	2.01
NIYYYLEDDSMSVINPVVENSGIL [E15N]	2.79
NIYYYLEDDSMSVIIPVVENSGIL [E15I]	3.11
NIYYYLEDDSMSVIMPVVENSGIL [E15M]	2.85
NIYYYLEDDSMSVIKPVVENSGIL [E15K]	2.34
NIYYYLEDDSMSVIYPVVENSGIL [E15Y]	1.02
NIYYYLEDDSMSVILPVVENSGIL [E15L]	2.31
NIYYYLEDDSMSVIGPVVENSGIL [E15G]	1.6
NIYYYLEDDSMSVIHPVVENSGIL [E15H]	1.75
NIYYYLEDDSMSVIWPVVENSGIL [E15W]	2.39
NIYYYLEDDSMSVIPPVVENSGIL [E15P]	2.38
NIYYYLEDDSMSVIDPVVENSGIL [E15D]	1.96
NIYYYLEDDSMSVISPVVENSGIL [E15S]	1.7
NIYYYLEDDSMSVIFPVVENSGIL [E15F]	2.48
NIYYYLEDDSMSVIQPVVENSGIL [E15Q]	1.61
NIYYYLEDDSMSVIRPVVENSGIL [E15R]	1.32
NIYYYLEDDSMSVITPVVENSGIL [E15T]	1.42
NIYYYLEDDSMSVICPVVENSGIL [E15C]	3.27
NIYYYLEDDSMSVIAPVVENSGIL [E15A]	2.22
